Biological target: SARS-CoV-2 receptor binding domain (RBD), residues 319-591 of SARS-CoV-2 S (SARS-CoV-2, UniProt P0DTC2 319-591)
Assay: BLI, mAb on anti-human Fc probe (FIGS. 5A-E)

B1: Mab #1 (antibody, V domains shown)
VH: EVQLVESGPEVKKPGTSVKVPCKASGFTFTSSAVQWVRQARGQRLEWIGWIVVGSGNTNYAQKFQERVTITRDMSTSTAYMELSSLRSEDTAVYYCAAPSCSGGRCYDGFDIWGQGTMVTVSS
VL: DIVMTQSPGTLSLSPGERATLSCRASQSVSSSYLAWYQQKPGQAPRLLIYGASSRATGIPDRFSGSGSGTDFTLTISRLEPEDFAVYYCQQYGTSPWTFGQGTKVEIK
B1: binds.
